Results on five molecules are retold here after patent publication US20020058247A1 (TRIPEP, published 2002).

T2 sequence (P03146 1-150): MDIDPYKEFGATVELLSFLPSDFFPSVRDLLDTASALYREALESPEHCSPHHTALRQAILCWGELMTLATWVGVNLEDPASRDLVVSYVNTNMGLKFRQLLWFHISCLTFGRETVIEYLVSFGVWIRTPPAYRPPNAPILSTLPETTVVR

The first experiment deals with T1, Full length recombinant HBcAg (rHBcAg) encompassing residues 1-183 (hepatitis B virus, UniProt P03146 1-183).
T1 construct: range 1-183; also called hepatitis B virus core antigen
T1 sequence (P03146 whole entry, the tested form may be a part): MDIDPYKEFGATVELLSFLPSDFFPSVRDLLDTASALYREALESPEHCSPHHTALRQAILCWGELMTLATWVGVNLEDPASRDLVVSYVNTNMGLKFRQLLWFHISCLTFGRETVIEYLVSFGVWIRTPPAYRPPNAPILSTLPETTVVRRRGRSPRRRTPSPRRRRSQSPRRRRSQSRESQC
Description: EIA, peptide coated 50 ug/ml, HBcAg 10 ug/ml.
ISCRASQSVSTSSYSYMHWY [ISCRASQSVSTSSYSYMHWY (SEQ. ID. No. 17)]: the OD was found to be 0.569 OD.
The same measure, in the same setting: to VKPGASVKLSCKASGYIFTS (also called Peptide # 2; Pept. #2) [VKPGASVKLSCKASGYIFTS (SEQ. ID. No. 5)] belongs 1.22 OD.
The same measure, in the same setting: to CKASGYSFTGYNMNWVKQSH (also called Peptide # 26) [CKASGYSFTGYNMNWVKQSH (SEQ. ID. No. 29)] belongs 0.198 OD; to LAVSLGQRATISCRASQSVS [LAVSLGQRATISCRASQSVS (SEQ. ID. No. 16)], 0.434 OD; to VKPGASVKISCKASGYSFTG (also called Peptide # 25) [VKPGASVKISCKASGYSFTG (SEQ. ID. No. 28)], 0.766 OD.

Another experiment concerns the target T2, truncated recombinant form of HBeAg containing nine residues of pre-core and the 150 first residues of HBcAg (hepatitis B virus, UniProt P03146 1-150).
T2 construct: domain: nine residues of pre-core;range 1-150; also called hepatitis B virus e antigen
The experiment in a line: EIA, support-bound peptide, HBeAg 0.67 ug/ml.
For the molecule ISCRASQSVSTSSYSYMHWY [ISCRASQSVSTSSYSYMHWY (SEQ. ID. No. 17)], the OD is 0.046 OD.
On the same count and under the same terms, to VKPGASVKLSCKASGYIFTS (also called Peptide # 2; Pept. #2) [VKPGASVKLSCKASGYIFTS (SEQ. ID. No. 5)] belongs 0.081 OD; to CKASGYSFTGYNMNWVKQSH (also called Peptide # 26) [CKASGYSFTGYNMNWVKQSH (SEQ. ID. No. 29)], 0.027 OD.
For the molecule LAVSLGQRATISCRASQSVS [LAVSLGQRATISCRASQSVS (SEQ. ID. No. 16)], the OD is 0.024 OD.
Same read-out and setting: to VKPGASVKISCKASGYSFTG (also called Peptide # 25) [VKPGASVKISCKASGYSFTG (SEQ. ID. No. 28)] belongs 0.022 OD.

A further experiment addresses T1, Full length recombinant HBcAg (rHBcAg) …. The experiment in a line: competition EIA, HBcAg coated 1 ug/ml, peptide 6.25 ug/ml before mAb 4-2 (competitor); OD of bound mAb.
For ISCRASQSVSTSSYSYMHWY [ISCRASQSVSTSSYSYMHWY (SEQ. ID. No. 17)], the “OD at 490 nm” value was 0.37 OD.
Still for that read-out and setting: with VKPGASVKLSCKASGYIFTS (also called Peptide # 2; Pept. #2) [VKPGASVKLSCKASGYIFTS (SEQ. ID. No. 5)] the figure was 0.336 OD; with CKASGYSFTGYNMNWVKQSH (also called Peptide # 26) [CKASGYSFTGYNMNWVKQSH (SEQ. ID. No. 29)], 0.351 OD; with LAVSLGQRATISCRASQSVS [LAVSLGQRATISCRASQSVS (SEQ. ID. No. 16)], 0.35 OD.
Still for that read-out and setting: to VKPGASVKISCKASGYSFTG (also called Peptide # 25) [VKPGASVKISCKASGYSFTG (SEQ. ID. No. 28)] belongs 0.329 OD.

In the next experiment the target is T2, truncated recombinant form of HBeAg …. The experiment in a line: EIA, support-bound peptide, HBeAg 1.25 ug/ml.
Turning to ISCRASQSVSTSSYSYMHWY [ISCRASQSVSTSSYSYMHWY (SEQ. ID. No. 17)], the OD is 0.056 OD.
As to VKPGASVKLSCKASGYIFTS (also called Peptide # 2; Pept. #2) [VKPGASVKLSCKASGYIFTS (SEQ. ID. No. 5)], the OD turned out to be 0.043 OD.
With CKASGYSFTGYNMNWVKQSH (also called Peptide # 26) [CKASGYSFTGYNMNWVKQSH (SEQ. ID. No. 29)], the OD amounted to 0.026 OD.
Still for that read-out and setting: to LAVSLGQRATISCRASQSVS [LAVSLGQRATISCRASQSVS (SEQ. ID. No. 16)] belongs 0.023 OD.
The same measure, in the same setting: with VKPGASVKISCKASGYSFTG (also called Peptide # 25) [VKPGASVKISCKASGYSFTG (SEQ. ID. No. 28)] the figure was 0.034 OD.

Another experiment addresses T1, Full length recombinant HBcAg (rHBcAg) …. Description: competition EIA, peptide added to HBcAg before mAb 4-2 (competitor); OD of bound mAb.
Consider VKPGASVKLSCKASGYIFTS (also called Peptide # 2; Pept. #2) [VKPGASVKLSCKASGYIFTS (SEQ. ID. No. 5)], for which the “OD at 490 nm” value turned out to be 0.453 OD.

A further experiment shares this target. Description: EIA, peptide coated 25 ug/ml, HBcAg 10 ug/ml.
In the case of ISCRASQSVSTSSYSYMHWY [ISCRASQSVSTSSYSYMHWY (SEQ. ID. No. 17)], the OD stood at 0.636 OD.
For the molecule VKPGASVKLSCKASGYIFTS (also called Peptide # 2; Pept. #2) [VKPGASVKLSCKASGYIFTS (SEQ. ID. No. 5)], the OD was 1.04 OD.
Same read-out and setting: to CKASGYSFTGYNMNWVKQSH (also called Peptide # 26) [CKASGYSFTGYNMNWVKQSH (SEQ. ID. No. 29)] belongs 0.181 OD; to LAVSLGQRATISCRASQSVS [LAVSLGQRATISCRASQSVS (SEQ. ID. No. 16)], 0.276 OD.
Take VKPGASVKISCKASGYSFTG (also called Peptide # 25) [VKPGASVKISCKASGYSFTG (SEQ. ID. No. 28)]: the OD came to 0.569 OD.

For a further experiment, the target named is T2, truncated recombinant form of HBeAg …. The experiment in a line: EIA, support-bound peptide, HBeAg 2.5 ug/ml.
Consider ISCRASQSVSTSSYSYMHWY [ISCRASQSVSTSSYSYMHWY (SEQ. ID. No. 17)], for which the OD turned out to be 0.102 OD.
Still for that read-out and setting: with VKPGASVKLSCKASGYIFTS (also called Peptide # 2; Pept. #2) [VKPGASVKLSCKASGYIFTS (SEQ. ID. No. 5)] the figure was 0.063 OD; with CKASGYSFTGYNMNWVKQSH (also called Peptide # 26) [CKASGYSFTGYNMNWVKQSH (SEQ. ID. No. 29)], 0.063 OD; with LAVSLGQRATISCRASQSVS [LAVSLGQRATISCRASQSVS (SEQ. ID. No. 16)], 0.03 OD.
On the same count and under the same terms, with VKPGASVKISCKASGYSFTG (also called Peptide # 25) [VKPGASVKISCKASGYSFTG (SEQ. ID. No. 28)] the figure was 0.115 OD.

The next experiment concerns the target T1, Full length recombinant HBcAg (rHBcAg) …. Description: EIA, support-bound peptide, HBcAg 1.25 ug/ml.
Consider ISCRASQSVSTSSYSYMHWY [ISCRASQSVSTSSYSYMHWY (SEQ. ID. No. 17)], for which the OD was found to be 0.117 OD.
Still for that read-out and setting: with VKPGASVKLSCKASGYIFTS (also called Peptide # 2; Pept. #2) [VKPGASVKLSCKASGYIFTS (SEQ. ID. No. 5)] the figure was 0.155 OD.
Still for that read-out and setting: with CKASGYSFTGYNMNWVKQSH (also called Peptide # 26) [CKASGYSFTGYNMNWVKQSH (SEQ. ID. No. 29)] the figure was 0.038 OD; with LAVSLGQRATISCRASQSVS [LAVSLGQRATISCRASQSVS (SEQ. ID. No. 16)], 0.079 OD; with VKPGASVKISCKASGYSFTG (also called Peptide # 25) [VKPGASVKISCKASGYSFTG (SEQ. ID. No. 28)], 0.058 OD.

The target is the same in the next experiment. The experiment in a line: competition EIA, HBcAg coated 5 ug/ml, peptide 200 ug/ml together with mAb 4-2 (competitor); OD of bound mAb.
Regarding ISCRASQSVSTSSYSYMHWY [ISCRASQSVSTSSYSYMHWY (SEQ. ID. No. 17)], the “OD at 490 nm” value worked out at 1.47 OD.
On the same count and under the same terms, with VKPGASVKLSCKASGYIFTS (also called Peptide # 2; Pept. #2) [VKPGASVKLSCKASGYIFTS (SEQ. ID. No. 5)] the figure was 0.139 OD; with CKASGYSFTGYNMNWVKQSH (also called Peptide # 26) [CKASGYSFTGYNMNWVKQSH (SEQ. ID. No. 29)], 0.341 OD; with LAVSLGQRATISCRASQSVS [LAVSLGQRATISCRASQSVS (SEQ. ID. No. 16)], 0.859 OD.
Same read-out and setting: to VKPGASVKISCKASGYSFTG (also called Peptide # 25) [VKPGASVKISCKASGYSFTG (SEQ. ID. No. 28)] belongs 0.302 OD.

The target is the same in another experiment. Description: EIA, peptide coated 3.125 ug/ml, HBcAg 10 ug/ml.
Consider ISCRASQSVSTSSYSYMHWY [ISCRASQSVSTSSYSYMHWY (SEQ. ID. No. 17)], for which the OD was 0.413 OD.
Same read-out and setting: with VKPGASVKLSCKASGYIFTS (also called Peptide # 2; Pept. #2) [VKPGASVKLSCKASGYIFTS (SEQ. ID. No. 5)] the figure was 0.333 OD.
Same read-out and setting: to CKASGYSFTGYNMNWVKQSH (also called Peptide # 26) [CKASGYSFTGYNMNWVKQSH (SEQ. ID. No. 29)] belongs 0.171 OD.
The same measure, in the same setting: with LAVSLGQRATISCRASQSVS [LAVSLGQRATISCRASQSVS (SEQ. ID. No. 16)] the figure was 0.355 OD; with VKPGASVKISCKASGYSFTG (also called Peptide # 25) [VKPGASVKISCKASGYSFTG (SEQ. ID. No. 28)], 0.217 OD.

For the next experiment the target is unchanged. Description: EIA, support-bound peptide, HBcAg 5 ug/ml.
As to ISCRASQSVSTSSYSYMHWY [ISCRASQSVSTSSYSYMHWY (SEQ. ID. No. 17)], the “OD at 490 nm” value was determined as 1.94 OD.
On the same count and under the same terms, to VKPGASVKLSCKASGYIFTS (also called Peptide # 2; Pept. #2) [VKPGASVKLSCKASGYIFTS (SEQ. ID. No. 5)] belongs 3.26 OD.

For a further experiment the target is unchanged. The experiment in a line: EIA, support-bound peptide, HBcAg 0.67 ug/ml.
As for ISCRASQSVSTSSYSYMHWY [ISCRASQSVSTSSYSYMHWY (SEQ. ID. No. 17)], the OD was found to be 0.039 OD.
Same read-out and setting: to VKPGASVKLSCKASGYIFTS (also called Peptide # 2; Pept. #2) [VKPGASVKLSCKASGYIFTS (SEQ. ID. No. 5)] belongs 0.034 OD; to CKASGYSFTGYNMNWVKQSH (also called Peptide # 26) [CKASGYSFTGYNMNWVKQSH (SEQ. ID. No. 29)], 0.028 OD; to LAVSLGQRATISCRASQSVS [LAVSLGQRATISCRASQSVS (SEQ. ID. No. 16)], 0.028 OD.
The same measure, in the same setting: to VKPGASVKISCKASGYSFTG (also called Peptide # 25) [VKPGASVKISCKASGYSFTG (SEQ. ID. No. 28)] belongs 0.036 OD.
